Test system: Escherichia coli TOP10
Assay: shrunken log2 fold change of peptide-encoding DNA abundance (4.5 h post-induction vs induction); higher = less antimicrobial activity (less host growth inhibition)
Details: time post-induction: 4.5 h; library: site-saturation at positions 5, 18, 19, 20
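Further: peptides expressed intracellularly from a pBAD plasmid library in pooled LB shake-flask culture, induced with 0.3% L-arabinose, DNA abundance read by NGS, three biological replicates, DESeq2 with apeglm shrinkage.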

RRIRTRPPRLPRPRPRPWHDPRP and RRIRLRPPRLPRPRPRPYQNPRP are within 0.2 log units of each other in “shrunken log2 fold change” value: -0.0708 for the first, -0.0985 for the second.

RRIRDRPPRLPRPRPRPPFHPRP and RRIRKRPPRLPRPRPRPSMAPRP are within 0.2 log units of each other in “shrunken log2 fold change” value: 0.0293 for the first, 0.0554 for the second.

Compared with RRIRARPPRLPRPRPRPDLDPRP, RRIRQRPPRLPRPRPRPTTTPRP is lower in “shrunken log2 fold change” value: 0.515 for the first, -0.126 for the second.

RRIRERPPRLPRPRPRPGTRPRP and RRIRRRPPRLPRPRPRPWIEPRP are within 0.2 log units of each other in “shrunken log2 fold change” value: -0.0692 for the first, -0.0568 for the second.

First: RRIRDRPPRLPRPRPRPCILPRP
Second: RRIRMRPPRLPRPRPRPHVQPRP
The “shrunken log2 fold change” value of the first is higher: 1.16 for the first, -0.0996 for the second.

RRIRKRPPRLPRPRPRPNCTPRP and RRIRMRPPRLPRPRPRPWQGPRP are within 0.2 log units of each other in “shrunken log2 fold change” value: 0.335 for the first, 0.155 for the second.

Going from RRIRIRPPRLPRPRPRPNKEPRP to RRIRSRPPRLPRPRPRPTAMPRP, the “shrunken log2 fold change” value rises from -0.131 to 0.4.

First: RRIRVRPPRLPRPRPRPLLHPRP
Second: RRIRARPPRLPRPRPRPTAPPRP
The “shrunken log2 fold change” value of the first is lower: -0.114 for the first, 0.8 for the second.

RRIRNRPPRLPRPRPRPYNFPRP and RRIRNRPPRLPRPRPRPYHDPRP are within 0.2 log units of each other in “shrunken log2 fold change” value: -0.176 for the first, -0.165 for the second.

Going from RRIRGRPPRLPRPRPRPCPCPRP to RRIRSRPPRLPRPRPRPELTPRP, the “shrunken log2 fold change” value rises from -0.0469 to 0.316.

RRIRTRPPRLPRPRPRPRDLPRP and RRIRDRPPRLPRPRPRPCMAPRP are within 0.2 log units of each other in “shrunken log2 fold change” value: 0.064 for the first, 0.203 for the second.

RRIRDRPPRLPRPRPRPMGTPRP and RRIRIRPPRLPRPRPRPDLKPRP are within 0.2 log units of each other in “shrunken log2 fold change” value: -0.106 for the first, -0.194 for the second.

Going from RRIRFRPPRLPRPRPRPPFFPRP to RRIRTRPPRLPRPRPRPHTPPRP, the “shrunken log2 fold change” value falls from 0.243 to 0.0178.

First: RRIRMRPPRLPRPRPRPPECPRP
Second: RRIRMRPPRLPRPRPRPEAEPRP
The “shrunken log2 fold change” value of the first is lower: 0.369 for the first, 2.18 for the second.

RRIRKRPPRLPRPRPRPCQPPRP and RRIRFRPPRLPRPRPRPVPTPRP are within 0.2 log units of each other in “shrunken log2 fold change” value: 0.227 for the first, 0.113 for the second.

RRIRCRPPRLPRPRPRPCAMPRP and RRIRFRPPRLPRPRPRPWGEPRP are within 0.2 log units of each other in “shrunken log2 fold change” value: -0.103 for the first, 0.0156 for the second.

First: RRIRTRPPRLPRPRPRPRCMPRP
Second: RRIRMRPPRLPRPRPRPNEWPRP
The “shrunken log2 fold change” value of the first is lower: -0.288 for the first, 0.23 for the second.

First: RRIRYRPPRLPRPRPRPHLYPRP
Second: RRIRVRPPRLPRPRPRPQRWPRP
The “shrunken log2 fold change” value of the first is lower: -1.35 for the first, 0.496 for the second.

Compared with RRIRYRPPRLPRPRPRPHFDPRP, RRIRARPPRLPRPRPRPAWPPRP is higher in “shrunken log2 fold change” value: 0.144 for the first, 0.582 for the second.

Compared with RRIRWRPPRLPRPRPRPFDNPRP, RRIRMRPPRLPRPRPRPCCLPRP is higher in “shrunken log2 fold change” value: -0.114 for the first, 0.273 for the second.

RRIRFRPPRLPRPRPRPQAGPRP and RRIRIRPPRLPRPRPRPQTRPRP are within 0.2 log units of each other in “shrunken log2 fold change” value: -0.0266 for the first, -0.196 for the second.

RRIRFRPPRLPRPRPRPCHHPRP and RRIRGRPPRLPRPRPRPAIHPRP are within 0.2 log units of each other in “shrunken log2 fold change” value: -0.0196 for the first, 0.164 for the second.

Going from RRIRHRPPRLPRPRPRPDAAPRP to RRIRTRPPRLPRPRPRPDMAPRP, the “shrunken log2 fold change” value falls from 0.453 to -0.0628.

RRIRNRPPRLPRPRPRPTGIPRP and RRIRLRPPRLPRPRPRPQMAPRP are within 0.2 log units of each other in “shrunken log2 fold change” value: 0.0288 for the first, -0.0634 for the second.

Compared with RRIRKRPPRLPRPRPRPLHKPRP, RRIRTRPPRLPRPRPRPSTPPRP is lower in “shrunken log2 fold change” value: 0.342 for the first, -0.195 for the second.
